Results from patent US20240270846A1 (published 2024).
Positions count from the first letter of the chain named. Names and notes keep the numbering of the source.

B1: CE115HA000/GLS3000 R54S one-arm antibody (antibody, human IgG1, kappa, L234A L235A, N297A, name in Kabat numbering)
heavy: QVQLVESGGGVVQPGRSLRLSCAASGFTFSNAWMHWVRQAPGKGLEWVAQIKAKSNNYATYYAESVKGRFTISRDDSKNSLYLQMNSLKTEDTAVYYCRYVHYGAYYGVDAWGQGTTVTVSSASTKGPSVFPLAPSSKSTSGGTAALGCLVKDYFPEPVTVSWNSGALTSGVHTFPAVLQSSGLYSLSSVVTVPSSSLGTQTYICNVNHKPSNTKVDKKVEPKSCDKTHTCPPCPAPEAAGGPSVFLFPPKPKDTLMISRTPEVTCVVVDVSHEDPEVKFNWYVDGVEVHNAKTKPREEQYASTYRVVSVLTVLHQDWLNGKEYKCKVSNKALPAPIEKTISKAKGQPREPQVYTLPPSRCELTKNQVSLSCAVKGFYPSDIAVEWESNGQPENNYKTTPPVLDSDGSFFLVSKLTVDKSRWQQGNVFSCSVMHEALHNHYTQKSLSLSPDYKDDDDK
chain: EPKSSDKTHTCPPCPAPELLGGPSVFLFPPKPKDTLMISRTPEVTCVVVDVSHEDPEVKFNWYVDGVEVHNAKTKPREEQYNSTYRVVSVLTVLHQDWLNGKEYKCKVSNKALPAPIEKTISKAKGQPREPQVCTLPPSRDELTKNQVSLWCLVKGFYPSDIAVEWESNGQPENNYKTTPPVLDSDGSFFLYSKLTVDKSRWQQGNVFSCSVMHEALHNRYTQKSLSLSP
light: DIVMTQSPLSLPVTPGEPASISCRSSQSLVHSNRNTYLHWYQQKPGQAPRLLIYKVSNSFSGVPDRFSGSGSGTDFTLKISRVEAEDVGVYYCGQGTQVPYTFGQGTKLEIKRTVAAPSVFIFPPSDEQLKSGTASVVCLLNNFYPREAKVQWKVDNALQSGNSQESVTEQDSKDSTYSLSSTLTLSKADYEKHKVYACEVTHQGLSSPVTKSFNRGEC
notes: one-arm IgG1
B2: CE115HA000/GLS3000 S56E one-arm antibody (antibody, human IgG1, kappa, L234A L235A, N297A, name in Kabat numbering)
heavy: B1 heavy
chain: B1 chain
light: B1 light with S59R, S61E
notes: one-arm IgG1
B3: CE115HA000/GLS3000 S56L one-arm antibody (antibody, human IgG1, kappa, L234A L235A, N297A, name in Kabat numbering)
heavy: B1 heavy
chain: B1 chain
light: B1 light with S59R, S61L
notes: one-arm IgG1
B4: CE115HA000/GLS3000 S56P one-arm antibody (antibody, human IgG1, kappa, L234A L235A, N297A, name in Kabat numbering)
heavy: B1 heavy
chain: B1 chain
light: B1 light with S59R, S61P
notes: one-arm IgG1
B5: CE115HA000/GLS3000 S56N one-arm antibody (antibody, human IgG1, kappa, L234A L235A, N297A, name in Kabat numbering)
heavy: B1 heavy
chain: B1 chain
light: B1 light with S59R, S61N
notes: one-arm IgG1
B6: CE115HA000/GLS3000 S56G one-arm antibody (antibody, human IgG1, kappa, L234A L235A, N297A, name in Kabat numbering)
heavy: B1 heavy
chain: B1 chain
light: B1 light with S59R, S61G
notes: one-arm IgG1
B7: CE115HA000/GLS3000 S56D one-arm antibody (antibody, human IgG1, kappa, L234A L235A, N297A, name in Kabat numbering)
heavy: B1 heavy
chain: B1 chain
light: B1 light with S59R, S61D
notes: one-arm IgG1
B8: CE115HA000/GLS3000 S56K one-arm antibody (antibody, human IgG1, kappa, L234A L235A, N297A, name in Kabat numbering)
heavy: B1 heavy
chain: B1 chain
light: B1 light with S59R, S61K
notes: one-arm IgG1
B9: CE115HA000/GLS3000 S56V one-arm antibody (antibody, human IgG1, kappa, L234A L235A, N297A, name in Kabat numbering)
heavy: B1 heavy
chain: B1 chain
light: B1 light with S59R, S61V
notes: one-arm IgG1
B10: CE115HA000/GLS3000 S52D one-arm antibody (antibody, human IgG1, kappa, L234A L235A, N297A, name in Kabat numbering)
heavy: B1 heavy
chain: B1 chain
light: B1 light with S57D, S59R
notes: one-arm IgG1
B11: CE115HA000/GLS3000 S56Q one-arm antibody (antibody, human IgG1, kappa, L234A L235A, N297A, name in Kabat numbering)
heavy: B1 heavy
chain: B1 chain
light: B1 light with S59R, S61Q
notes: one-arm IgG1
B12: CE115HA000/GLS3000 S56M one-arm antibody (antibody, human IgG1, kappa, L234A L235A, N297A, name in Kabat numbering)
heavy: B1 heavy
chain: B1 chain
light: B1 light with S59R, S61M
notes: one-arm IgG1
B13: CE115HA000/GLS3000 S56W one-arm antibody (antibody, human IgG1, kappa, L234A L235A, N297A, name in Kabat numbering)
heavy: B1 heavy
chain: B1 chain
light: B1 light with S59R, S61W
notes: one-arm IgG1
B14: CE115HA000/GLS3000 S56H one-arm antibody (antibody, human IgG1, kappa, L234A L235A, N297A, name in Kabat numbering)
heavy: B1 heavy
chain: B1 chain
light: B1 light with S59R, S61H
notes: one-arm IgG1
B15: CE115HA000/GLS3000 S56R one-arm antibody (antibody, human IgG1, kappa, L234A L235A, N297A, name in Kabat numbering)
heavy: B1 heavy
chain: B1 chain
light: B1 light with S59R, S61R
notes: one-arm IgG1
B16: CE115HA000/GLS3000 S56I one-arm antibody (antibody, human IgG1, kappa, L234A L235A, N297A, name in Kabat numbering)
heavy: B1 heavy
chain: B1 chain
light: B1 light with S59R, S61I
notes: one-arm IgG1
B17: CE115HA000/GLS3000 S56T one-arm antibody (antibody, human IgG1, kappa, L234A L235A, N297A, name in Kabat numbering)
heavy: B1 heavy
chain: B1 chain
light: B1 light with S59R, S61T
notes: one-arm IgG1
B18: CE115HA000/GLS3000 S56F one-arm antibody (antibody, human IgG1, kappa, L234A L235A, N297A, name in Kabat numbering)
heavy: B1 heavy
chain: B1 chain
light: B1 light with S59R, S61F
notes: one-arm IgG1
B19: CE115HA000/GLS3000 S52Q one-arm antibody (antibody, human IgG1, kappa, L234A L235A, N297A, name in Kabat numbering)
heavy: B1 heavy
chain: B1 chain
light: B1 light with S57Q, S59R
notes: one-arm IgG1
B20: CE115HA000/GLS3000 R54T one-arm antibody (antibody, human IgG1, kappa, L234A L235A, N297A, name in Kabat numbering)
heavy: B1 heavy
chain: B1 chain
light: B1 light with S59T
notes: one-arm IgG1
B21: CE115HA000/GLS3000 R54W one-arm antibody (antibody, human IgG1, kappa, L234A L235A, N297A, name in Kabat numbering)
heavy: B1 heavy
chain: B1 chain
light: B1 light with S59W
notes: one-arm IgG1
B22: CE115HA000/GLS3000 S52P one-arm antibody (antibody, human IgG1, kappa, L234A L235A, N297A, name in Kabat numbering)
heavy: B1 heavy
chain: B1 chain
light: B1 light with S57P, S59R
notes: one-arm IgG1
B23: CE115HA000/GLS3000 S52Y one-arm antibody (antibody, human IgG1, kappa, L234A L235A, N297A, name in Kabat numbering)
heavy: B1 heavy
chain: B1 chain
light: B1 light with S57Y, S59R
notes: one-arm IgG1

Molecular target: T1, CD3 epsilon homodimer protein (UniProt P07766 23-126)
T1 construct: also called CD3 (CD3 epsilon)
Test: SPR (Biacore T200), CD3e homodimer on CM4 chip, antibody as analyte; KD ratio vs unaltered GLS3000;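 also: CD3 epsilon homodimer amine-coupled to the sensor surface, antibodies injected as analyte at 25 °C with HBS-EP+ running buffer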

T1 sequence (P07766 23-126): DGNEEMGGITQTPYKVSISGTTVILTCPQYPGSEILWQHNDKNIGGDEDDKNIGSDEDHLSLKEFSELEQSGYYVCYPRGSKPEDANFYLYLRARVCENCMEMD

In order of rising “KD ratio to GLS3000” value:
1. B21  0.65 ratio
2. B1  0.78 ratio
3. B20  0.89 ratio
4. B5  0.9 ratio
5. B2  0.91 ratio
6. B12  0.93 ratio
7. B9  0.94 ratio
8. B10  0.94 ratio
9. B14  0.96 ratio
10. B11  0.97 ratio
11. B4  0.98 ratio
12. B6  0.99 ratio
13. B16  1.01 ratio
14. B17  1.01 ratio
15. B19  1.01 ratio
16. B23  1.02 ratio
17. B3  1.03 ratio
18. B7  1.11 ratio
19. B13  1.12 ratio
20. B18  1.12 ratio
21. B15  1.15 ratio
22. B8  1.21 ratio
23. B22  7.38 ratio
